The record followed here is PMC10198977, “Computational design of dynamic receptor—peptide signaling complexes applied to chemotaxis” (Nature Communications, 2023).

Residues, ends and D or L forms follow the SMILES beside them. No end group written: not given here. Where only a bound is given, the exact number is not on record here.

In test [1] the target is T1, WT CXCR4 (Homo sapiens, UniProt P61073). Description: Calcium mobilization of peptides on WT CXCR4. Type of test: cell-based. To be noted: WT receptor, Ca. The method, then: (§1) Lyophilized peptides were stored at −80 °C and resuspended in assay buffer on the day of the experiment.
Calcium mobilization assays
40,000 HEK 293T cells (gift from Prof. Ted Wensel at Baylor College of Medicine) were transiently transfected with 50 ng WT or variant HA3-CXCR4, 10 ng GNA15 in pcDNA3.1(+). To equalize receptor surface expression, 75 ng of HA3-CXCR4 was used for the Csel2 variant. Cells were first seeded in 100 µL DMEM (Gibco, ref: 41965-039) 10 % FBS in a black-walled, clear-bottom 96-well plate coated with poly-lysine (Sigma, ref: P6407-5MG). Directly after cell loading, 50 µL of the mixture containing 0.5 µL Lipofectamine 2000 (Invitrogen, ref: 11668-019) and the DNA was added on top of the cells. The cells were incubated at 37 °C, 5% CO2, and 95% relative humidity for 20 h, after which, media was refreshed with 150 µL DMEM + 10% FBS. Cells were assayed 48 h post-transfection. Cells were washed with 200 µL FLIPR6 buffer (HBSS + 20 mM HEPES, pH 7.4), then incubated at 37 °C, 5% CO2, and 95% relative humidity for 2 h in 200 µL dye buffer according to the manufacturer’s protocol (Molecular Devices, ref: R8190). Just before the assay, 5× concentrated peptide solutions were prepared in FLIPR6 buffer in a V-bottom 96-well plate. After incubation, peptide solutions were added at a rate of 16 µL/s after 30 s and fluorescence changes were monitored for 90 s after addition using microplate reader FlexStation3 (Molecular Devices). The maximum response after correction by the mock-transfected condition was averaged from three replicates. Values were then plotted against selected concentrations and fitted to a sigmoidal curve using GraphPad Prism v9.
A general note: A change in cytosolic calcium serves as a functional read-out for many receptors and channels.

For test [2], the target named is T1, WT CXCR4. Description: Gαi BRET of peptides on WT CXCR4. The following applies: WT receptor, Gi. Format: cell-based. The method, then:
as §1
(§2) 40,000 HEK 293T cells were transiently transfected with WT or variant HA3-CXCR4, Gαi1−91-Rluc8, Gβ3-WT, and Gγ9-GFP2 in pcDNA3.1(+) at a ratio of 10:1:10:5 respectively. Cells were first seeded in 100 µL DMEM 10% FBS in a poly-lysine coated, white-walled, white-bottom 96-well plate. Directly after cell loading, 50 µL of the mixture containing Lipofectamine 2000 and the DNA was added on top of the cells. The cells were then left to incubate at 37 °C, 5% CO2, and 95% relative humidity for 20 h, after which, 150 µL media was refreshed. Cells were assayed 48 h post-transfection. Cells were washed with 150 µL PBS, then 40 µL BRET buffer (HBSS, 0.2% Glucose) was added to each well. Coelenterazine 400a was first added at a final concentration of 2.5 µM and BRET ratios were measured once using Mithras[2] LB 943 plate reader. After the first measurement, 40 µL of a 3x concentrated agonist solution was added to each well, and BRET ratios were measured for another 30 min using a Mithras[2] LB 943 plate reader. Mock-transfected controls were subtracted from the data. Maximum values averaged from 3 replicates were then plotted against selected concentrations and fitted to a sigmoidal curve using GraphPad Prism v9.
(In general: In BRET a luciferase serves as donor, and the signal depends on an acceptor being close.)

The target in test [3] is Cdyn designed CXCR4 receptor (UniProt P61073).
In test [4] the target is Csel2 designed CXCR4 receptor (UniProt P61073).
The target of test [5] is Csedy designed CXCR4 receptor (UniProt P61073).
In the next test the test system is Gαi activation. Description: Gαi dissociation BRET of designed receptors with WT CXCL12(1-17) peptide. Format: cell-based. The following applies: WT CXCL12 peptide. How it is done:
as §1, §2

The test system of test [6] is CXCR4 variant ligand-binding cavity. The test can be described thus: Receptor cavity cross-sectional area and structure-function map. The following applies: receptor–peptide pair; Fig. 5c z-axis.
From the text: Calculation of receptor cavity cross-sectional area
To quantify the conformational diversity of the ligand binding site between receptor variants, the ligand-binding pocket of the receptor models (from whose the ligand molecule was removed) was geometrically described using pyKVFinder[75]. Cavities were defined using a 1.2 Å probe over a cubic lattice (0.25 Å vertex). A 4.0 Å probe was used to define the entrance of the cavity.
The target of test [7] is Cdyn designed CXCR4 receptor (UniProt P61073). The source holds these as a separate data set.
Test [8] addresses Csedy designed CXCR4 receptor (UniProt P61073). This is another data set of the same source.
The target in test [9] is Csel2 designed CXCR4 receptor (UniProt P61073). This is another data set of the same source.
Test [10] addresses WT CXCR4 with an N-terminal 3xHA-tag (UniProt P61073).

T1 sequence (P61073 whole entry): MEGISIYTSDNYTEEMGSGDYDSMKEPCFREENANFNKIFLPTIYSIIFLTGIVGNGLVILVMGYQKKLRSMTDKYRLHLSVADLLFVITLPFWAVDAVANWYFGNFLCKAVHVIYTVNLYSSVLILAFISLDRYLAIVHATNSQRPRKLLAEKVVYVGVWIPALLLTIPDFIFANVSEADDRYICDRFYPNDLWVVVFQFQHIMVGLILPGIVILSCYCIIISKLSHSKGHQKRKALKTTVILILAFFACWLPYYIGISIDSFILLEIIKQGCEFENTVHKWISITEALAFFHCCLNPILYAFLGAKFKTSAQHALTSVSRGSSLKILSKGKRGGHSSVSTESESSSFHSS

With `CC(C)C[C@H](NC(=O)[C@H](CO)NC(=O)[C@@H](NC(=O)[C@@H]1CCCN1C(=O)[C@@H](N)CCCCN)C(C)C)C(=O)N[C@@H](CO)C(=O)N[C@@H](Cc1ccc(O)cc1)C(=O)N[C@@H](CCCNC(=N)N)C(=O)N[C@@H](CS)C(=O)N1CCC[C@H]1C(=O)N[C@@H](CS)C(=O)N[C@@H](CCCNC(=N)N)C(=O)N[C@@H](Cc1ccccc1)C(=O)N[C@@H](Cc1ccccc1)C(=O)N[C@@H](CCC(=O)O)C(=O)N[C@@H](CO)C(=O)N[C@@H](Cc1c[nH]cn1)C(N)=O` [WT, reference compound] (H-KPVSLSYRCPCRFFESH-NH2), the Efficacy at WT CXCR4 [1] (average (n=3)) and at WT CXCR4 [2] (average (n=3)) was 100 % WT each time. Further, the concentration for a half-maximal effect (EC50) (usually the concentration needed to bring the measured effect to its halfway point) was 12.9 µM on WT CXCR4 [1] (replicate 1); 8.57 µM on WT CXCR4 [1] (replicate 2); 15.3 µM at WT CXCR4 [1] (replicate 3); 11.2 µM on WT CXCR4 [2] (replicate 1); 9.75 µM on WT CXCR4 [2] (replicate 2); 12 µM at WT CXCR4 [2] (replicate 3).

For KPVSLSYRCPCRFFESH-NH2 (cysteine pairing not given here) [wild-type peptide of the 17 N-terminal residues of CXCL12], in test [3], the Gαi efficacy (BRET, WT CXCL12 peptide), increase over the CXCR4 WT scaffold worked out at 20% and the Gαi potency (BRET, WT CXCL12 peptide), fold over the CXCR4 WT scaffold is 11 fold. In [4], the potency in Gαi-coupling (BRET, HEK 293T cells, WT CXCL12 peptide), fold over WT CXCR4 worked out at 3.2 fold and the potency in calcium mobilization (HEK 293T cells, WT CXCL12 peptide), fold over WT CXCR4 came out at 3.1 fold. In addition, the Gαi response (BRET) against WT CXCL12 peptide, fold increase over WT CXCR4 in [5] is above 9 fold.

B1: Cdyn: CXCR4 receptor design maintaining conformational dynamism; 3 mutations (protein, UniProt P61073 1-352, looked up, variant L41A S178A H113N)
C-X-C chemokine receptor type …: MEGISIYTSDNYTEEMGSGDYDSMKEPCFREENANFNKIFAPTIYSIIFLTGIVGNGLVILVMGYQKKLRSMTDKYRLHLSVADLLFVITLPFWAVDAVANWYFGNFLCKAVNVIYTVNLYSSVLILAFISLDRYLAIVHATNSQRPRKLLAEKVVYVGVWIPALLLTIPDFIFANVAEADDRYICDRFYPNDLWVVVFQFQHIMVGLILPGIVILSCYCIIISKLSHSKGHQKRKALKTTVILILAFFACWLPYYIGISIDSFILLEIIKQGCEFENTVHKWISITEALAFFHCCLNPILYAFLGAKFKTSAQHALTSVSRGSSLKILSKGKRGGHSSVSTESESSSFHSS
In the case of B1, the “enhanced potency from WT” value with Gαi activation (up to) is listed as “up to 11 -fold”. Further, in the test with Gαi activation (over WT CXCR4), the “enhanced potency in Gαi-coupling” value is given as ~11 -fold. Also, in the test with Gαi activation (vs WT CXCR4), the “increase in efficacy (Gαi)” value turned out to be 20%. For the same molecule, in test [6], the “Potency (activity shift from WT)” value was 1.794.

Take KPYSLSYRCPCRFFESH-NH2 (cysteine pairing not given here) [CXCL12 V3Y variant peptide (17 N-terminal residues)]: in test [7], the efficacy of signaling, increase over the WT receptor-peptide pair came to 25% and the potency of signaling, fold over the WT receptor-peptide pair was above 80 fold.

In [8], KPYSLSLRCPCRFFESH-NH2 (cysteine pairing not given here) [CXCL12 V3Y-Y7L variant peptide (17 N-terminal residues)] had an efficacy of signaling, increase of 34% and a potency of signaling, fold increase above 100 fold.

KPVSLSLRCPCRFFESH-NH2 (cysteine pairing not given here) [CXCL12 Y7L variant peptide (17 N-terminal residues)] registered a Gαi efficacy (BRET) with the Y7L peptide, increase in [9] of 30%. Besides, in test [10], the overall Gαi response (BRET) with the Y7L peptide, decrease was 18%.
